Test results reported in the supplement of paper PMC10201428.
± gives the standard deviation of the averaged measurements.

Columns and labels:
[1] = tested on: VchCAST RNA-guided transposition machinery (E. coli BL21(DE3) host, lacZ target); test: relative integration efficiency (T-LR orientation) vs wild-type transposon end (log2 (normalized fold change)); transposon end mutated: right end (5 bp flank + 75 bp right end); higher = more efficient transposition
In short: (§1)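 A T7-driven effector plasmid encoding a CRISPR array, tniQ-cas8-cas7-cas6 and tnsA-tnsB-tnsC was co-transformed into E. coli BL21(DE3) together with a pUC57 mini-transposon donor holding barcoded pools of 1549 left-end or 1849 right-end variants. Transformants were plated with 0.1 mM IPTG at 37°C for 18 h. Illumina sequencing of PCR-amplified input plasmids and genomic integration junctions gave barcode abundances, and relative integration efficiency is their output/input fold change, normalised to reference barcodes and log-transformed.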

[2] = tested on: VchCAST RNA-guided transposition machinery (E. coli BL21(DE3) host, lacZ target); test: relative integration efficiency (T-RL orientation) vs wild-type transposon end (log2 (normalized fold change)); transposon end mutated: right end (5 bp flank + 75 bp right end); higher = more efficient transposition
In short: as §1

Sequence	relative integration efficiency (log2) [1]	relative integration efficiency (log2) [2]
ACATTTGTTGATACAACCATAAAATGATAATTACACCCAATTTTTGATAATTATCACACCCATAAATTGATATTGCCTCTGATCATAGTCAGACCAACATTGCTACGACCCGTATTCGCACCGACAC	-0.688 ± 0.35	-0.529 ± 0.16
ACATTTGTTGATACAACCATAAAATGATAATTAATAATTATTTATAATCAGCACCCATAAATTGATAATTATCAACAAACGCCCGGTCGCGGTACTCTGATCATAGTCAGACCAACATTGCTACGAC	0.752 ± 0.5	-2.03 ± 0.4
ACATTTGTTGATAGAACCATAAAATGATAATTAGACCCATAAATTGATAATTATCAGACCCATAAATTGATATTGCCTCTGATCATAGTCAGACCAACATTGCTACGACCCGTATTCGCACCGACAC	-0.628 ± 0.11	-1.64 ± 0.2
ACATTTGTTGATACAACCATAAAATGATAATTAATAATTATTTATAATCAGCAACTTAACCCACCCATAAATTGATAATTATCAACAAACGCCCGGTCGCGGTACTCTGATCATAGTCAGACCAACA	0.743 ± 0.49	-2.76 ± 0.67
ACATTTGTTGATAAAACCATACGTTGATTTTACCACCCATAAATTGATAATTATCACACCCATAAATTGATATTGCCTCTGATCATAGTCAGACCAACATTGCTACGACCCGTATTCGCACCGACAC	-2.98 ± 0.21	-2.65 ± 0.17
ACATTTCTGGATACAACCATAAAATGATAATTACACCCATAAATTGATCATTATCACACCCAATTTAACTATAACGCTCTGATCATAGTCAGACCAACATTGCTACGACCCGTATTCGCACCGACAC	0.307 ± 0.3	-2.77 ± 0.4
ACATTTGTTGATACAACCATTAAATGATAATTCCACCCTTAAATTGATAATTATCACACCCAATTTAACTATAACGCTCTGATCATAGTCAGACCAACATTGCTACGACCCGTATTCGCACCGACAC	0.973 ± 0.22	-2.08 ± 0.36
ACATTTGTTGATACAACCATAAAATGATAATTACACCCATTAATTGATAATTGTGACACCGAATTTAACTATAACGCTCTGATCATAGTCAGACCAACATTGCTACGACCCGTATTCGCACCGACAC	2.21 ± 0.16	-1.29 ± 0.37
ACATTTGTTGATACAACCATAAAATGATCATTACACCCATCAATTGATAATTATCACACCCAATTTAACTATAACGCTCTGATCATAGTCAGACCAACATTGCTACGACCCGTATTCGCACCGACAC	0.697 ± 0.18	-2.98 ± 0.5
ACATTTGTTGATACAACCATAAAATGCGCCGGCACAAACGCCCGGTCGCCGGCGACACAAACGCCCGGTCGCGGTAAGAGGATCATAGTCAGACCAACATTGCTACGACCCGTATTCGCACCGACAC	-0.733 ± 0.15	-3.75 ± 0.078
ACATTTGTTGATACAACCATAAAATGATAATTACACCCATAAATTGATAATTATCACACCCATAAATTGATATTGCCTCTGATCATAGTCAGACCAACAACCATAAAATGATAATTAGCACCGACAC	-0.0679 ± 0.32	0.0312 ± 0.094
ACATTTGTTGATACAACCATAAGTTGATATTTTCACCCATAAATTGATAATTATCACACCCATAAATTGATATTGCCTCTGATCATAGTCAGACCAACATTGCTACGACCCGTATTCGCACCGACAC	-0.177 ± 0.84	0.0993 ± 0.059
ACATTTGTTGATACAACCATAAAATGATAATTACAACCATAAAGTGATATTTATCACAACCATAAAATGATAATTACTCTGATCATAGTCAGACCAACATTGCTACGACCCGTATTCGCACCGACAC	-0.0691 ± 0.38	-0.258 ± 0.14
ACATTTGTTGATACAACCATTAAATGATAATTCCACCCATCAATTGATAATTATCACACCCAATTTAACTATAACGCTCTGATCATAGTCAGACCAACATTGCTACGACCCGTATTCGCACCGACAC	1.01 ± 0.31	-1.79 ± 0.23
ACATTTGTTGATACAACCATAAAATGGTAATTACACCCATACATTGATAATTATCACACCCAATTTAACTATAACGCTCTGATCATAGTCAGACCAACATTGCTACGACCCGTATTCGCACCGACAC	0.71 ± 0.05	-2.58 ± 0.27
ACATTGGTTGATACAACCATAAAATGATAATTACACCCATAAATGGATCATTATCACACCCAATTTAACTATAACGCTCTGATCATAGTCAGACCAACATTGCTACGACCCGTATTCGCACCGACAC	-5.25 ± 0.34	-7.55 ± 0.43
ACATTTGTTGATACAACCATAAAATGATAATTACAACCATAAAGTGATATTTATCAGTGGGTATTTAACTATAACGCTCTGATCATAGTCAGACCAACATTGCTACGACCCGTATTCGCACCGACAC	2.5 ± 0.1	-0.586 ± 0.2
ACATTTGTTGATACAAGCATAAAATGATAATTACACGCATAAATTGATAATTATCACACGCATAAATTGATATTGCCTCTGATCATAGTCAGACCAACATTGCTACGACCCGTATTCGCACCGACAC	-0.218 ± 0.08	-0.3912 ± 0.0011

Sequence	relative integration efficiency (log2) [1]	relative integration efficiency (log2) [2]
ACATTGGTTGATACAACCATAAAATGATAATTACACCCATAAATGGATAATTATCACACCCAATTTAACTATAACGCTCTGATCATAGTCAGACCAACATTGCTACGACCCGTATTCGCACCGACAC	-5.61 ± 0.44	-7.99 ± 0.69
ACATTTGTTGATACAACCATAAAAGGATCATTCACCCATAAATTGATAATTATCACACCCACATTTAACTATAACGCTCTGATCATAGTCAGACCAACATTGCTACGACCCGTATTCGCACCGACAC	-0.0129 ± 0.14	-3.13 ± 0.14
ACATTTGTTGATACCACCATAAAATGATAATTACACCCCTAAATTGATAATTATCACACCCAATTTAACTATAACGCTCTGATCATAGTCAGACCAACATTGCTACGACCCGTATTCGCACCGACAC	0.973 ± 0.2	-2.41 ± 0.33
ACATTTGTTGATACAACGTATAAATGATAATTACACCCATAAATTGATAATTATCACACCCATAAATTGATATTGCCTCTGATCATAGTCAGACCAACATTGCTACGACCCGTATTCGCACCGACAC	-2.43 ± 0.46	-1.91 ± 0.13
ACATTTCTCGATACAACCATAAAATGATAATTACACCCATAAATTGATAATTATCACACCCAATTTAACTATAACGCTCTGATCATAGTCAGACCAACATTGCTACGACCCGTATTCGCACCGACAC	1 ± 0.028	-1.57 ± 0.34
ACATTTGTGGATACAACCATAAAATGATAATTACACCCATAAATGGATAATTATCACACCCAATTTAACTATAACGCTCTGATCATAGTCAGACCAACATTGCTACGACCCGTATTCGCACCGACAC	2.14 ± 0.031	-0.586 ± 0.33
ACATTTGTTCATACAACCATAAAATGATAATTACACCCATAAATTCATAATTATCACACCCAATTTAACTATAACGCTCTGATCATAGTCAGACCAACATTGCTACGACCCGTATTCGCACCGACAC	-0.697 ± 0.075	-2.52 ± 0.32
ACATTTGTACATACAACCATAAAATGATAATTACACCCATAAATTGATAATTATCACACCCATAAATTGATATTGCCTCTGATCATAGTCAGACCAACATTGCTACGACCCGTATTCGCACCGACAC	-1.97 ± 0.36	-0.312 ± 0.12
ACATTTGTTGATACACCCATAAATTGATATTGCCAACCATATATTGATATCTCTCACAACCATAAAGTGATATTTACTCTGATCATAGTCAGACCAACATTGCTACGACCCGTATTCGCACCGACAC	-0.365 ± 0.021	-1.21 ± 0.24
ACATTTGTAAAAACAACCATAAAATGATAATTACACCCATAAATTGATAATTATCACACCCATAAATTGATATTGCCTCTGATCATAGTCAGACCAACATTGCTACGACCCGTATTCGCACCGACAC	-0.286 ± 0.49	0.25 ± 0.023
ACATTTGTTGATACAACCATAAAATCATAATTACACCCATAAATTCATAATTATCACACCCATAAATTCATATTGCCTCTGATCATAGTCAGACCAACATTGCTACGACCCGTATTCGCACCGACAC	-1.52 ± 0.48	-4.92 ± 0.57
ACATTTGTCGATACAACCATAAAACGATAATTACACCCATAAATGGATAATTATCACACCCAATTTAACTATAACGCTCTGATCATAGTCAGACCAACATTGCTACGACCCGTATTCGCACCGACAC	1.85 ± 0.05	-1.19 ± 0.15
ACATTTGTTGATACAACCATATATTGATATCTCCAACCATAAAATGATAATTATCACAACCATAAAGTGATATTTACTCTGATCATAGTCAGACCAACATTGCTACGACCCGTATTCGCACCGACAC	-0.441 ± 0.36	-0.115 ± 0.074
CACGTTGTTGATACAACCATAAAATGATAATTACACCCATAAATTGATAATTATCACACCCATAAATTGATATTGCCTCTGATCATAGTCAGACCAACATTGCTACGACCCGTATTCGCACCGACAC	0.451 ± 0.3	-0.27 ± 0.091
ACATTTGTTGATACACCCATAAATTGATATTGCCACCCATAAATTGATAATTATCACACCCATAAATTGATAATTACTCTGATCATAGTCAGACCAACATTGCTACGACCCGTATTCGCACCGACAC	-0.0383 ± 0.28	-0.597 ± 0.26
ACATTTCTTCATACAACCATAAAATGATAATTACACCCATAAATGGATAATTATCACACCCAATTTAACTATAACGCTCTGATCATAGTCAGACCAACATTGCTACGACCCGTATTCGCACCGACAC	-2.86 ± 0.049	-4.17 ± 0.17
ACATTTGTTGATAAAACCATAAAATGATTTTTAGAAACCATAATCTGAAATTATCACACCCATAAATTGATATTGCCTCTGATCATAGTCAGACCAACATTGCTACGACCCGTATTCGCACCGACAC	-2.56 ± 0.33	-2.97 ± 0.17
